# Assay results from patent US20090054317A1.
# Target: ANTXR2 expressed in RAW264.7 cells, Q6DFX2
# Experiment: cell-based or functional assay
# ANTXR2 expressed in RAW264.7 cells, Q6DFX2, sequence (Q6DFX2 32-487 limits assumed): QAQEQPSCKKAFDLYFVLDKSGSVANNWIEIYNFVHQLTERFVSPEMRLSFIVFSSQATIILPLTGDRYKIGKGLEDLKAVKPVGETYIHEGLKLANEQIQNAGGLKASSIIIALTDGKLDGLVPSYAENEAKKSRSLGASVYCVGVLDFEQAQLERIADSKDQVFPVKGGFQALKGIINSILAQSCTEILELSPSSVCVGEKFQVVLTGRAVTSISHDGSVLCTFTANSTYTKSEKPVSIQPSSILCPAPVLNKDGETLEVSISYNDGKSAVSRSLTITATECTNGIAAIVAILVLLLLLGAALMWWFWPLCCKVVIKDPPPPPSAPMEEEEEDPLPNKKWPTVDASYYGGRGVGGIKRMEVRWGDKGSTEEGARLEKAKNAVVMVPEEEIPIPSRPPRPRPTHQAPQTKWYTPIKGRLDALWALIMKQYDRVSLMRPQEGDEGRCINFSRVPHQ
binder,measurement,value
AWPLSQLDHSYNC (modifications not checked) [… (SEQ ID NO: 3)-functionalized liposomes],Activity against toxin-induced cell death in RAW264.7 cells (IC50),40 nM
same,enhancement in the activity of the peptide by polyvalency (against the monovalent peptide),> 50000 fold
